One assay addresses T1, BSA (Sigma-Aldrich) (bovine, UniProt P02769 25-607).
T1 construct: also called bovine serum albumin; BSA control
The assay can be described thus: direct ELISA on coated BSA. Background: An ELISA detects its analyte on a solid surface through an enzyme-linked reagent.

Assay [1] addresses T2, SARS-CoV-2-S1 (RBD)-His protein (Trenzyme) (SARS-CoV-2, UniProt P0DTC2 319-541). The assay can be described thus: direct ELISA on coated RBD-His.
Assay [2] concerns the target T2, SARS-CoV-2-S1 (RBD)-His protein …. In words: iQue flow cytometry, antigen-coated beads.
The target of assay [3] is recombinant SARS-CoV Spike protein (RBD, His tag) (SARS-CoV, UniProt P59594 306-527). In words: iQue flow cytometry, antigen-coated beads. On the technique in general: A flow cytometer gives signals particle by particle.
For assay [4], the target named is T3, MERS-CoV Spike protein fragment (RBD, aa 367-606, His tag) (MERS-CoV, UniProt K9N5Q8 367-606).
T3 sequence: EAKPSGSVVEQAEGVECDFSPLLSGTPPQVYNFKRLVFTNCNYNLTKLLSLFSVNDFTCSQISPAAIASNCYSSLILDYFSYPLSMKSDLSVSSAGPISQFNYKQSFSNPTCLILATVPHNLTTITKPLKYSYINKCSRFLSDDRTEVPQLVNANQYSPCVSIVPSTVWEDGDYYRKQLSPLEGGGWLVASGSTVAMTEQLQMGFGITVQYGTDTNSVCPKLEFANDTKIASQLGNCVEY
In words: iQue flow cytometry, antigen-coated beads.

Assay [5] addresses T2, SARS-CoV-2-S1 (RBD)-His protein …. In words: competition ELISA, RBD binding to coated ACE2.
Assay [6] deals with SARS-CoV-2 Spike (S) protein on vesicular stomatitis virus (VSV) pseudoviruses (SARS-CoV-2, UniProt P0DTC2 14-1273). The assay can be described thus: cell-based or functional assay.

Data on 15 molecules can be found in patent publication US20230242624A1 (NEURIMMUNE, published 2023).

B1: NI-607.820_B7 (antibody, V domains shown)
VH: EVQLVESGGGLVQPGRSLRLSCAASGFTFDDFDMHWVRQAPGKGLEWVSGVTWNSGIIGYADSVKGRFTISRDNAKNSLYLQMNSLRAEDTALYYCAKEFYPRYGSGIRSHYFGMDVWGQGTTVTVSS
VL: QSVLTQSPSASGTPGQRVTISCSGSSSNVGSNAVNWYQQLPGTAPKLLIYSNNRRPSGVPNRFSGSKSGTSASLAISGLQSDDEADYYCAAWDDSLDGPTFGGGTKLTVL
On to B1, for which the binding result with BSA (Sigma-Aldrich) is listed as “no binding (tested: 400 nM)”. In addition, the EC50 in assay [1] turned out to be 0.082 nM; in assay [2], 9 nM; in assay [3], 800 nM; in assay [4], 800 nM.

B2: NI-607.275_C5 (antibody, V domains shown)
VH: QVQLVESGGGLVQPGGSLRLSCAASGFTVSSNYMSWVRQAPGKGLEWVSVIYSGGSTYYADSVKGRFTISRDNSKNTLYLQMNSLRAEDTAVYYCARDFGDYYFDYWGQGTLVTVSS
VL: not shown
Consider B2, for which, in the assay with BSA (Sigma-Aldrich), the binding result is given as “no binding (tested: 400 nM)”. Further, the EC50 in assay [1] was 0.02 nM; in assay [2], 1.5 nM; in assay [4], 800 nM. Moreover, the IC50 in assay [5] worked out at 36.8 nM.

B3: NI-607.820_B6 (antibody, V domains shown)
VH: EVQLQESGPGLVKPSETLSLTCTVSGGSVSSGSYYWSWIRQPPGKGLEWIGYIYYSGSTNYNPSLKSRVTISVDTSKNQFSLKVSSVTAADTAVYYCARDSIVVVPAARPLYYGMDVWGQGTTVTVSS
VL: not shown
In the case of B3, in the assay with BSA (Sigma-Aldrich), the binding result was “no binding (tested: 400 nM)”. The EC50 amounted to 0.029 nM in assay [1], 2.4 nM in assay [2], 60.2 nM in assay [3] and 1000 nM in assay [4].

B4: NI-607.649_G7 (antibody, V domains shown)
VH: QVQLVESGGGLVQPGGSLRLSCAASGFTFSRYAMSWVRQAPGKGLEWVSAISGSGGSTYYADSVKGRFTISRDNSKNTLYLQINSLRAEDTAVYYCAKGVRWGVDYFDYWGQGTLVTVSS
VL: not shown
Regarding B4, in assay [6], the “IC50, pseudovirus entry assay (luciferase, HEK 293T-ACE2 cells)” value (shortened to “IC50, pseudovirus entry assay”) is greater than 100 µg/mL. Also, the EC50 in assay [1] came to 0.024 nM; in assay [2], 5.7 nM; in assay [3] it was 22.2 nM; in assay [4], 800 nM.

B5: NI-607.274_E5 (antibody, V domains shown)
VH: EVQLVESGGGMVQPGRSLRLSCAGSGFTFSTHGMHWVRQAPGKGLEWITGITYDGSDEFYADSVKGRFTIARDNSKNMLYLQMNSLRAEDTAVYFCAKDLEWLTNYVDHWGQGTLVTVSS
VL: DIVMTQSPGTLSVSPGERATLSCRASQSVNYNLAWYQQKPGQAPRLLIFDASTRATGIPARFTGSGSGTEFTLTISSLQSEDFAVYYCQQSNAWLTFGGGTKLEIK
For B5, in the assay with BSA (Sigma-Aldrich), the binding result is “no binding (tested: 400 nM)”. The EC50 in assay [1] came to 0.015 nM; in assay [2] it was 0.39 nM; in assay [3], 900 nM; in assay [4], 900 nM. Besides, the IC50 in assay [5] came to 12.6 nM.

B6: NI-607.426_D4 (antibody, V domains shown)
VH: not shown
VL: EIVLTQSPATLSLSPGERATLSCRASQSVSSYLAWYQQKPGQAPRLLIYDASNRATGIPARFSGSGSGTDFTLTISSLEPEDFAVYYCQQRSNWPPVTFGQGTRLEIK
For B6, the binding result with BSA (Sigma-Aldrich) was “no binding (tested: 400 nM)”. Moreover, the EC50 in assay [1] stood at 0.033 nM; in assay [2], 0.76 nM; in assay [3], 1000 nM; in assay [4] it was 1000 nM. For the same molecule, the IC50 in assay [5] stood at 24.4 nM.

B7: NI-607.531_D8 (antibody, V domains shown)
VH: EVQLVESGGGLVQPGRSLRLSCAASGFIFDDYAMHWVRQAPGKGLEWVSGISWNSDSIGYADSVKGRFTISRDNAKNSLYLQMNSLRAEDTALYYCAKGSRSDWSNPSDYWGQGTLVTVSS
VL: SYELTQPPSVSVAPGKTARITCGGNNIGSKSVHWYQQKPGQAPVLVVYDDSDRPSGIPERFSGSNSGNTATLTISRVEAGDEADYYCQVWDSSSDPVVFGGGTKLTVL
For B7, the “IC50, pseudovirus entry assay” value in assay [6] is greater than 100 µg/mL. The binding result in the assay with BSA (Sigma-Aldrich) was “no binding (tested: 400 nM)”. The EC50 in assay [1] was 0.0045 nM; in assay [2], 1.4 nM; in assay [4] it was 1000 nM.

B8: NI-607.529_G4 (antibody, V domains shown)
VH: QVQLQQWGAGLLKPSETLSLTCAVYGGSFSGYYWSWIRQPPGKGLEWIGEINHSGSTNYNPSLKSRVTISVDTSKNQFSLKLSSVTAADTAVYYCARASLYYSDSSGYSHPYYFDYWGQGTLVTVSS
VL: QPVLTQPPSVSGAPGQRVTISCTGSSSNIGAGYDVHWYQQLPGTAPKLLIYGNSNRPSGVPDRFSGSKSGMSASLAITGLQAEDEADYYCQSYDSSLSGWVFGGGTKLTVL
In the case of B8, in assay [6], the “IC50, pseudovirus entry assay” value is greater than 100 µg/mL. Further, in the assay with BSA (Sigma-Aldrich), the binding result is “no binding (tested: 400 nM)”. For the same molecule, the EC50 in assay [1] worked out at 0.026 nM; in assay [2], 1.3 nM; in assay [3], 10 nM; in assay [4], 1000 nM.

B9: NI-607.532_D4 (antibody, V domains shown)
VH: QVQLVQSGAEVKRPGASVKVSCKASGYHFTDYYIHWVRQAPGQGLEWMGWINPNSGGTNYAQKFQGRVTMTRDTSISTAYMELSRLRSDDTAVYYCARVYYYDSSSFADYWGQGTLVTVSS
VL: not shown
notes: also called NI-607.532_D4C5
Regarding B9, the EC50 in assay [1] was 0.0055 nM; in assay [2] it was 1 nM; in assay [3], 1000 nM; in assay [4] it was 1000 nM.

B10: NI-607.531_E3 (antibody, V domains shown)
VH: EVQLVESGGGVVQPGRSLRLSCAASGFTFSSYGMHWVRQAPGKGLEWVAVISYDGSNKYYADSVKGRFTISRDNSKNTLYLQMNSLRAEDTAVYYCAKQISGYNYPYYFDYWGQGTLVTVSS
VL: not shown
Regarding B10, the binding result with BSA (Sigma-Aldrich) is listed as “no binding (tested: 400 nM)”. Further, the half-maximal effective concentration (EC50) in assay [1] was determined as 0.02 nM; in assay [2] it was 1.4 nM; in assay [3] it was 2.6 nM; in assay [4], 1000 nM.

B11: NI-607.761_B7 (antibody, V domains shown)
VH: EVQLVESGGGVVQPGRSLRLSCAASGFTFTRYGMHWVRQAPGKGLEWVAVIWYDGNNKNYEDSVRGRFTISRDNSKNTLFLQMNSLRAEDTAVYYCARGRRGGYSYGLFDYWGQGILVTVSS
VL: AIRMTQSPSSLSASVGDRVTITCQASQDISNYLNWYQQKPGKAPKLLIYDASNLETGVPSRFSGSGSGTDFTFTISSLQPEDVATYSCQQYDNLPLTFGGGTKVEIK
For the molecule B11, the binding result in the assay with BSA (Sigma-Aldrich) was “no binding (tested: 400 nM)”. In addition, the EC50 worked out at 0.001 nM in assay [1], 0.44 nM in assay [2], 200 nM in assay [3] and 200 nM in assay [4]. Moreover, in assay [5], the IC50 was 56 nM.

B12: NI-607.426_E2 (antibody, V domains shown)
VH: EVQLVESGGGLVQPGGSLRLSCAASGFTFSSYDMHWVRQATGKGLEWVSAIGTAGDTYYPGSVKGRFTISRENAKNSLYLQMNSLRAEDTAVYYCARASFLDYSWLYFDYWGQGTLVTVSS
VL: not shown
Turning to B12, the binding result with BSA (Sigma-Aldrich) was “no binding (tested: 400 nM)”. Also, the results for the concentration giving a half-maximal response (EC50) in assay [1], in assay [2] and in assay [4] were 0.03 nM, 2.06 nM and 600 nM, respectively. Besides, in assay [5], the IC50 is 10.7 nM.

B13: NI-607.791_B10 (antibody, V domains shown)
VH: QVQLQQWGAGLLKPSETLSRTCAVYGGSFSDYYWSWIRQPPGKGLEWIGEVNHRGVTNYNPSLKSRVTISIDTSKSQFSLELRSVTDADTALYFCARSPFWTIAARPFDYWGRGTLVTVSS
VL: EIVMTQSPGTLSLSPGERATLSCRASQSVISNYLAWYQQKPGQAPRFLIYAASTRARGIPDRFSGSGSGTDFTLTISRLEAEDFAVYYCQQYGNSPLTFGGGTKLEIK
As for B13, in the assay with BSA (Sigma-Aldrich), the binding result is listed as “no binding (tested: 400 nM)”. Also, the EC50 in assay [1] came out at 0.062 nM; in assay [2], 13.7 nM; in assay [3] it was 400 nM; in assay [4], 400 nM.

B14: NI-607.532_D8 (antibody, V domains shown)
VH: EVQLVESGGGVVQPGRSLRLSCAASGFTFSSYGMHWVRQAPGKGLEWVAVISYDGSNKYYADSVKGRFTISRDNSKNTLYLQMNSLRAEDTAVYYCAKQGGGQYCSGGSCYSGYFDYWGQGTLVTVSS
VL: not shown
Take B14: the EC50 came to 0.0051 nM in assay [1], 14.4 nM in assay [2], 32 nM in assay [3] and 1000 nM in assay [4].

B15: NI-607.532_C8 (antibody, V domains shown)
VH: QVQLVESGGGLVKPGRSLRLSCTASGFTFGDYAMSWFRQAPGKGLEWVGFIRSKAYGGTTEYAASVKGRFSISRDDSKSIAYLQMNSLKTEDTAVYYCTRGWIVVVIEDAFDIWGQGTMVTVSS
VL: not shown
For B15, the binding result with BSA (Sigma-Aldrich) is reported as “no binding (tested: 400 nM)”. Further, the EC50 in assay [3] and in assay [4] was 400 nM throughout.

One may read the EC50 as the concentration needed to bring the measured effect to its halfway point. The IC50 is the concentration needed to halve the response being measured. Lower therefore signals greater potency in that assay.
